Biological target: SsaL-3Flag (Salmonella enterica serovar Typhimurium (strain 12023))
Assay: co-IP; Bacteria grown 6 h in MgM-MES at pH 5.0; lysate in PBS, 1 mM PMSF, 0.5% Triton X-100; SsaL-3Flag precipitated with anti-Flag M2 affinity agarose for 3 h at 4°C and eluted with 3Flag peptide; SsaV detected with anti-His antibody. Strains: wt background, ssaV^V632D, ΔssaP (with or without pssaP), and ΔssaU expressing SsaU^N262A

Sequence of SsaV-6×His (P74856 whole entry): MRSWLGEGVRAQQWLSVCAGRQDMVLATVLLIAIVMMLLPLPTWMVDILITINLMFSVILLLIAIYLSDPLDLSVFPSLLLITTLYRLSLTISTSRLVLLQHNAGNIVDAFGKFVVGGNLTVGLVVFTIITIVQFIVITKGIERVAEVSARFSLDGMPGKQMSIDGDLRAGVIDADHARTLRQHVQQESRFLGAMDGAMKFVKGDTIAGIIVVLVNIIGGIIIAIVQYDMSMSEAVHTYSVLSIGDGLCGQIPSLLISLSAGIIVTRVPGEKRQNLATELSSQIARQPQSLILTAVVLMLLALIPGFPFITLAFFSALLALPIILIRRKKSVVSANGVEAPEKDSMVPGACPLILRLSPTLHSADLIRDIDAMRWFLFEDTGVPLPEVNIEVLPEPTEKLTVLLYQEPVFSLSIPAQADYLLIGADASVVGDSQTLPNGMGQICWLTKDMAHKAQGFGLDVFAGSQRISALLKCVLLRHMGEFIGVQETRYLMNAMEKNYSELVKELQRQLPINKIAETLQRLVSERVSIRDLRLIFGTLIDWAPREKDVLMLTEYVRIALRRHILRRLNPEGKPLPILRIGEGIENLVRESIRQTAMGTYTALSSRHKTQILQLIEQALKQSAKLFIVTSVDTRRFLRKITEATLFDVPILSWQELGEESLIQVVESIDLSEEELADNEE

“SsaV-6×His (from UniProt P74856 1-681) (natural protein)” showed a percent decrease of SsaV-6×His co-immunoprecipitated with SsaL-3Flag in the absence of SsaP (ΔssaP) of 43.6% and a percent decrease of SsaV-6×His co-immunoprecipitated with SsaL-3Flag in the absence of normally cleaved SsaU (ΔssaU expressing SsaU^N262A) of 46.2%.

Source: publication PMC6168863
